One block for each binder: values may come before it.
Tests used:
[1] = target: T1, human CD16A (158F) on transfected CHO cells (cAg_34) (human, UniProt P08637 17-254); experiment: flow cytometry on huCD16A-transfected CHO cells, anti-human IgG-APC detection
T1 construct: Exact cell-anchored construct not described; also called huCD16A
Procedure: To analyze binding of different antibody constructs to CHO cells transfected with human CD16A (cAg_34), relative to CD16 expression by flow cytometry, 1-2×10⁵ were resuspended in 100 μL FACS buffer (PBS (Invitrogen, cat.: 14190-169) containing 2% heat-inactivated FCS (Invitrogen, cat.: 10270-106), and 0.1% sodium azide (Roth, Karlsruhe, Germany, cat.: A1430.0100)) in round-bottom 96-well microtiter plates. After washing in FACS buffer, cells were incubated in 50 μL FACS buffer without antibodies or with titrated antibodies starting at a concentration of 100 μg/mL followed by ten 5-fold serial dilutions for 30 min on ice in the dark. After washing twice, cells were incubated with APC-conjugated goat anti-human IgG (H+L)-APC (Dianova, cat. 109-136-088) for 30 min on ice in the dark. […] After washing, binding was measured by flow cytometry and mean fluorescence intensities (MFI) of cell samples were calculated and corrected for background staining using control cells stained with secondary antibodies only.
(§1) Equilibrium dissociation constants (KD) of antibody binding were calculated by plotting MFI values and fitting a non-linear regression model for one-site binding to hyperbolic dose-response curves using GraphPad Prism.

[2] = target: T1, human CD16A (158F) on transfected CHO …; experiment: flow cytometry on huCD16A-transfected CHO cells (cAg_34), one-site fit of MFI, experiment 1
Procedure: (§2) After washing in FACS buffer, cells were incubated in 50 μL FACS buffer without antibodies or with titrated antibodies starting at a concentration of 100 μg/mL followed by ten 5-fold serial dilutions for 30 min on ice in the dark. After washing twice, cells were incubated with APC-conjugated goat anti-human IgG (H+L)-APC (Dianova, cat. 109-136-088) for 30 min on ice in the dark. […] After washing, binding was measured by flow cytometry and mean fluorescence intensities (MFI) of cell samples were calculated and corrected for background staining using control cells stained with secondary antibodies only.
as §1

[3] = target: T1, human CD16A (158F) on transfected CHO …; experiment: flow cytometry on huCD16A-transfected CHO cells (cAg_34), one-site fit of MFI, experiment 2
Procedure: as §2, §1

[4] = target: T1, human CD16A (158F) on transfected CHO …; experiment: flow cytometry on huCD16A-transfected CHO cells (cAg_34), one-site fit of MFI, experiment 3
Procedure: as §2, §1

[5] = target: T1, human CD16A (158F) on transfected CHO …; experiment: flow cytometry on huCD16A-transfected CHO cells (cAg_34), one-site fit of MFI, mean of 3 experiments
Procedure: as §2, §1

[6] = target: T2, recombinant human CD16A 158V, biotinylated mFc.silenced/Avi-tagged (human, UniProt P08637 17-208, biotinylated (Avi-tag)); experiment: SPR (Biacore), 37 °C, multi-cycle kinetics, biotin-captured antigen as ligand, antibody construct as analyte, 1:1 binding model
T2 construct: not shown: silenced mouse Fc (mFc.silenced) and Avi-tag
T2 sequence (P08637 17-208 F176V limits assumed): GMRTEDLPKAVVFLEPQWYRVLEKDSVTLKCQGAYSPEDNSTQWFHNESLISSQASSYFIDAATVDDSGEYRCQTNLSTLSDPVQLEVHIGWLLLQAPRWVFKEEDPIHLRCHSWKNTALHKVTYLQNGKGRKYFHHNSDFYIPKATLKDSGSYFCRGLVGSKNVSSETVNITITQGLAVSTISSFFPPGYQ
Procedure: (§3) After each cycle, chip surfaces were regenerated with 6M guanidine-HCl, 0.25M NaOH and reloaded with Biotin Capture reagent. Interaction kinetics were determined by fitting data from multi-cycle kinetics experiments to a simple 1:1 interaction model using the local data analysis option (Rmax and RI) available within Biacore T200 Evaluation Software (v3.1). Referencing was done against a flow cell without captured ligand (Fc2-Fc1, Fc4-Fc3).
(§4) Affinity and kinetic parameters were evaluated for interaction with human CD16A and cynomolgus CD16 using a 1:1 Binding model.

[7] = target: T3, recombinant human CD16A 158F, biotinylated mFc.silenced/Avi-tagged (human, UniProt P08637 17-208, biotinylated (Avi-tag)); experiment: as above
T3 construct: not shown: silenced mouse Fc (mFc.silenced) and Avi-tag
T3 sequence (P08637 17-208): as the sequence (P08637 17-208 F176V limits assumed) above, with V160F counted along it
Procedure: as §3, §4

[8] = target: T4, recombinant cynomolgus CD16, biotinylated mFc.silenced/Avi-tagged (cynomolgus, UniProt Q8SPW2 17-208, biotinylated (Avi-tag)); experiment: as above
T4 construct: not shown: silenced mouse Fc (mFc.silenced) and Avi-tag
T4 sequence (Q8SPW2 17-208): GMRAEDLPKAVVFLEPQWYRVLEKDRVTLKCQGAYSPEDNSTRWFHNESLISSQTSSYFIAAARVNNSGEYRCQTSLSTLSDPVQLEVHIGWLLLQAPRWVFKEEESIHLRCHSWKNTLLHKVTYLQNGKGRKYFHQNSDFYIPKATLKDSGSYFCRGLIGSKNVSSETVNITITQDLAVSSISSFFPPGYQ
Procedure: as §3, §4

[9] = target: T5, cynomolgus CD16 on transfected CHO cells (cAg_36) (cynomolgus, UniProt Q8SPW2 17-254); experiment: flow cytometry on cyCD16 CHO cells (cAg_36), one-site fit of MFI, mean
T5 construct: whole, on cells; also called cyCD16
T5 sequence (Q8SPW2 17-254): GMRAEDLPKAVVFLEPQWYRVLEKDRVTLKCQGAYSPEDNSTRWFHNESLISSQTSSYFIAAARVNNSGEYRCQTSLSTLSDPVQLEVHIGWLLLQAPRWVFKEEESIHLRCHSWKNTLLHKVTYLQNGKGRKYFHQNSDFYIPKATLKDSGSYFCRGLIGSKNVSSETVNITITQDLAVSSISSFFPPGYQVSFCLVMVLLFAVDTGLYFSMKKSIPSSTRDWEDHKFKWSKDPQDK
Procedure: as §2, with “1000 nM” for “100 μg/mL”, “elven 3-fold” for “ten 5-fold”, “40-50” for “30”, “FITC-conjugated” for “APC-conjugated”, “(H+L) (Jackson Immunologies, cat.: 109-096-088)” for “(H+L)-APC (Dianova, cat. 109-136-088)”
as §1

[10] = target: T5, cynomolgus CD16 on transfected CHO …; experiment: flow cytometry on cyCD16 CHO cells (cAg_36), one-site fit of MFI, Exp. 1
Procedure: (§5) After washing twice, cells were incubated with FITC-conjugated goat anti-human IgG (H+L) (Jackson Immunologies, cat.: 109-096-088) for 40-50 min on ice in the dark. […] After washing, binding was measured by flow cytometry and mean fluorescence intensities (MFI) of cell samples were calculated and corrected for background staining using control cells stained with secondary antibodies only.
as §1

[11] = target: T5, cynomolgus CD16 on transfected CHO …; experiment: flow cytometry on cyCD16 CHO cells (cAg_36), one-site fit of MFI, Exp. 2
Procedure: as §2, with “1000 nM” for “100 μg/mL”, “elven 3-fold” for “ten 5-fold”, “40-50” for “30”, “FITC-conjugated” for “APC-conjugated”, “(H+L) (Jackson Immunologies, cat.: 109-096-088)” for “(H+L)-APC (Dianova, cat. 109-136-088)”
as §1

[12] = target: T5, cynomolgus CD16 on transfected CHO …; experiment: flow cytometry on cyCD16 CHO cells (cAg_36), one-site fit of MFI, Exp. 3
Procedure: as §5, §1

[13] = target: T1, human CD16A (158F) on transfected CHO …; experiment: flow cytometry on huCD16A (158F) CHO cells (cAg_34), one-site fit of MFI, mean
Procedure: as §5, §1

[14] = target: T1, human CD16A (158F) on transfected CHO …; experiment: flow cytometry on huCD16A (158F) CHO cells (cAg_34), one-site fit of MFI, Exp. 1
Procedure: as §5, §1

[15] = target: T1, human CD16A (158F) on transfected CHO …; experiment: flow cytometry on huCD16A (158F) CHO cells (cAg_34), one-site fit of MFI, Exp. 2
Procedure: as §5, §1

[16] = target: T1, human CD16A (158F) on transfected CHO …; experiment: flow cytometry on huCD16A (158F) CHO cells (cAg_34), one-site fit of MFI, Exp. 3
Procedure: as §5, §1

[17] = target: T5, cynomolgus CD16 on transfected CHO …; experiment: flow cytometry on cyCD16-transfected CHO cells (cAg_36), anti-human IgG-FITC detection
Procedure: as §2, with “1000 nM” for “100 μg/mL”, “elven 3-fold” for “ten 5-fold”, “40-50” for “30”, “FITC-conjugated” for “APC-conjugated”, “(H+L) (Jackson Immunologies, cat.: 109-096-088)” for “(H+L)-APC (Dianova, cat. 109-136-088)”

[18] = target: T1, human CD16A (158F) on transfected CHO …; experiment: flow cytometry on huCD16A (158F)-transfected CHO cells (cAg_34), anti-human IgG-FITC detection
Procedure: as §2, with “1000 nM” for “100 μg/mL”, “elven 3-fold” for “ten 5-fold”, “40-50” for “30”, “FITC-conjugated” for “APC-conjugated”, “(H+L) (Jackson Immunologies, cat.: 109-096-088)” for “(H+L)-APC (Dianova, cat. 109-136-088)”

T1 sequence (P08637 17-254 limits assumed): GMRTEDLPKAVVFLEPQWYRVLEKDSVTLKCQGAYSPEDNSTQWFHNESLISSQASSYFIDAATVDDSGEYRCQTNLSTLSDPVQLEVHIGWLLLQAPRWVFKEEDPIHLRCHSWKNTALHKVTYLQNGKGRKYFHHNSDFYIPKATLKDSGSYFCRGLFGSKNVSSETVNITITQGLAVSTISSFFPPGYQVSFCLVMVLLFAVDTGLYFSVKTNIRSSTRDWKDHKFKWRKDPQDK

EC50 (read off the curve) [1]: ~20 nM
Kd [2]: 56.2 nM
Kd [3]: 18.7 nM
Kd [4]: 37.9 nM
Kd [5]: 37.6 nM
Kd [6]: 0.75 nM
koff [6]: 0.00023 s⁻¹
kon [6]: 310000 M⁻¹ s⁻¹
Kd [7]: 1.25 nM
koff [7]: 0.00037 s⁻¹
kon [7]: 300000 M⁻¹ s⁻¹
Kd [8]: 2.48 nM
koff [8]: 0.00047 s⁻¹
kon [8]: 190000 M⁻¹ s⁻¹
B1: scFv-IgAb_148 (CD123-1xCD16a2) (bispecific antibody)
chain 1: QVQLQQSGAEVKKPGASVKVSCKASGYTFTDYYMKWVKQSHGKSLEWMGDIIPSNGATFYNQKFKGKATLTVDRSTSTAYMELSSLRSEDTAVYYCARSHLLRASWFAYWGQGTLVTVSSASTKGPSVFPLAPSSKSTSGGTAALGCLVKDYFPEPVTVSWNSGALTSGVHTFPAVLQSSGLYSLSSVVTVPSSSLGTQTYICNVNHKPSNTKVDKKVEPKSCDKTHTCPPCPAPEFEGGPSVFLFPPKPKDTLMISRTPEVTCVVVAVSHEDPEVKFNWYVDGVEVHNAKTKPREEQYNSTYRVVSVLTVLHQDWLNGKEYKCKVSNKALPAPIEKTISKAKGQPREPQVYTLPPSREEMTKNQVSLTCLVKGFYPSDIAVEWESNGQPENNYKTTPPVLDSDGSFFLYSKLTVDKSRWQQGNVFSCSVMHEALHNHYTQKSLSLSPGGGGGSGGGGSGGGGSGGGGSGGGGSGGGGSSYVLTQPSSVSVAPGQTATISCGGHNIGSKNVHWYQQRPGQSPVLVIYQDNKRPSGIPERFSGSNSGNTATLTISGTQAMDEADYYCQVWDNYSVLFGGGTKLTVLGGSGGSGGSGGSGGSGGSGGSQVQLVQSGAEVKKPGESLKVSCKASGYTFTSYYMHWVRQAPGQGLEWMGAIEPMYGSTSYAQKFQGRVTMTRDTSTSTVYMELSSLRSEDTAVYYCARGSAYYYDFADYWGQGTLVTVSS
chain 2: not shown
notes: also called CD123xCD16A scFv-IgAb_148; CD16a2xCD123-1

Kd [9]: 32.8 nM
Kd [10]: 38.6 nM
Kd [11]: 31.7 nM
Kd [12]: 28.2 nM
Kd [13]: 26.2 nM
Kd [14]: 22.1 nM
Kd [15]: 29.3 nM
Kd [16]: 27.1 nM
EC50 (read off the curve) [17]: ~40 nM
EC50 (read off the curve) [18]: ~30 nM
B2: scFv-IgAb_381 (Target specificity x CD16A, CD16a4) (bispecific antibody)
chain 1: EVQLVESGGGVVQPGRSLRLSCSASGFTFSGYGLSWVRQAPGKGLEWVAMISSGGSYTYYADSVKGRFAISRDNAKNTLFLQMDSLRPEDTGVYFCARHGDDPAWFAYWGQGTPVTVSSASTKGPSVFPLAPSSKSTSGGTAALGCLVKDYFPEPVTVSWNSGALTSGVHTFPAVLQSSGLYSLSSVVTVPSSSLGTQTYICNVNHKPSNTKVDKKVEPKSCDKTHTCPPCPAPEFEGGPSVFLFPPKPKDTLMISRTPEVTCVVVAVSHEDPEVKFNWYVDGVEVHNAKTKPREEQYNSTYRVVSVLTVLHQDWLNGKEYKCKVSNKALPAPIEKTISKAKGQPREPQVYTLPPSREEMTKNQVSLTCLVKGFYPSDIAVEWESNGQPENNYKTTPPVLDSDGSFFLYSKLTVDKSRWQQGNVFSCSVMHEALHNHYTQKSLSLSPGGGGGSGGGGSGGGGSGGGGSGGGGSGGGGSSYELTQPLSVSVALGQTARITCGGHNIGSKNVHWYQQKPGQAPVLVIYQDNKRPSGIPERFSGSNSGNTATLTISRAQAGDEADYYCQVWDNYNVLFGCGTKLTVLGGSGGSGGSGGSGGSGGSGGSQVQLVQSGAEVKKPGASVKVSCKASGYTFTSYYMHWVRQAPGQCLEWMGAIEPTYGSTSYAQKFQGRVTMTRDTSTSTVYMELSSLRSEDTAVYYCARGSAYYYDFADYWGQGTLVTVS
chain 2: DIQLTQSPSSLSASVGDRVTITCSVSSSISSNNLHWYQQKPGKAPKPWIYGTSNLASGVPSRFSGSGSGTDYTFTISSLQPEDIATYYCQQWSSYPYMYTFGQGTKVEIKRTVAAPSVFIFPPSDEQLKSGTASVVCLLNNFYPREAKVQWKVDNALQSGNSQESVTEQDSKDSTYSLSSTLTLSKADYEKHKVYACEVTHQGLSSPVTKSFNRGEC

Reference: US20260070986A1 (AFFIMED, published 2026)
